Data from patent US11371056B2, “HPPD variants and methods of use” (BASF Agricultural Solutions Seed US LLC, priority 2017, dated 2022).

B1: SEQ ID NO:62: mutant HPPD polypeptide: 213K 215A 264L 268G 270E 315Q 335P 336D 337S 340V 344Q 345M (protein)
chain: MADLYENPMGLMGFEFIEFASPTPGTLEPIFEIMGFTKVATHRSKNVHLYRQGEINLILNNEPNSIASYFAAEHGPSVCGMAFRVKDSQKAYNRALELGAQPIHIDTGPMELNLPAIKGIGGAPLYLIDRFGEGSSIYDIDFVYLEGVERNPVGAGLKVIDHLTHNVYRGRMVYWANFYEKLFNFREARYFDIKGEYTGLTSKAMSAPDGMIKIALNEESSKGAGQIEEFLMQFNGEGIQHVAFLTDDLVKTWDALKKIGMRFLTAPGDEYYEMLEGRLPDHGEPVDQLQARGILLDGSSVEGDKRLLLQIFSEQLMGPVFFEFIQRKGDDGFGPDSFKVLFEQMERDQVRRGVLTAD
modifications: mutant HPPD polypeptide
notes: mutant HPPD polypeptide: 213K 215A 264L 268G 270E 315Q 335P 336D 337S 340V 344Q 345M

Tests used:
[1] = system: soybean shoots; experiment: Soybean transformation, selection of shoots with tembotrione (greening or bleaching); type: in vivo; conditions: wild-type soybean shoots treated with tembotrione
From the text: Soybean transformation was achieved by using methods well known in the art, such as the one described using the Agrobacterium tumefaciens mediated transformation soybean half-seed explants using essentially the method described by Paz et al. (2006), Plant cell Rep. 25:206. Transformants were identified by using the HPPD inhibitor herbicide “tembotrione” as selection marker. The appearance of green shoots was observed, and documented as an indicator of tolerance to the HPPD inhibitor herbicide tembotrione.

[2] = system: Pseudomonas fluorescens HPPD polypeptide (wild-type and mutants); experiment: Coupled HPPD activity assay: turnover and residual turnover in crude HPPD polypeptide extracts with and without Cmpd. 1; type: biochemical
[3] = system: soybean plants (transgenic T0 events, wild-type); experiment: Greenhouse spray test of T0 soybean events with Cmpd. 1, leaf area damage score; type: in vivo; set-up: key to leaf area damage score, 25th percentile / leaf area damage score, Interquartile range: damage score 0 (no damage) to 100 (complete bleaching); conditions: five days after application of Cmpd. 1 at 300 g AI/ha
From the text: Tolerant green shoots were transferred to rooting media or grafted. Rooted plantlets were transferred to the greenhouse after an acclimation period. Plants containing the transgene were then sprayed with HPPD inhibitor herbicides, as for example with mesotrione at a rate of 300-600 g AI/ha, or with Cmpd. 1 (2-chloro-3-(methylsulfanyl)-N-(1-methyl-1H-tetrazol-5-yl)-4-(trifluoromethyl)benzamide) at a rate of 150 g-300 g AI/ha supplemented with ammonium sulfate and methyl ester rapeseed oil. Five to ten days after the application, the symptoms due to the application of the herbicide were evaluated and compared to the symptoms observed on wild-type plants under the same conditions.
For example, T0 soybean plants having a “plant expression cassette”, which includes an HPPD inhibitor tolerant HPPD polypeptide of the present invention, were tested towards the tolerance of Cmpd. 1.
Prior greenhouse trials with the transgenic plants, soybean transformants were routinely analyzed for the expression and presence of the transgenes using the ELISA protein detection method (see detailed description under item D and H). Only plants recovering in the selection media and having a detectable HPPD transgene protein expression were used for the herbicide tolerance analysis. A DeVries Tracker Sprayer was calibrated prior to each spraying. The chemical formulation used for Cmpd. 1 was supplemented with ammonium sulfate and methylated rape seed oil. Spray tests were conducted with a concentration, which equals to 300 grams AI per hectare (300 g AI/ha).
In greenhouse trials, independent T0 soybean events containing an exemplary mutant HPPD polypeptide were sprayed with the HPPD inhibitor herbicide Cmpd. 1 (2-chloro-3-(methylsulfanyl)-N-(1-methyl-1H-tetrazol-5-yl)-4-(trifluoromethyl)benzamide) at the rate of 300 grams AI/ha, supplemented with ammonium sulfate and methyl ester rapeseed oil. Five days after the application, the leaf damaged area due to the HPPD inhibitor herbicide is scored in a scale from 0 (no damage) to 100 (complete bleaching). Under those conditions, the wild-type plants were completely bleached and their damage scores were in the 95-100 range.
Table 5 presents the distribution of the HPPD inhibitor herbicide damage score data as percentile for exemplary mutant HPPD inhibitor herbicide tolerant polypeptides (SEQ ID NOs). The percentiles normalize ranks of the damage score from an individual plant in a population. […] The median is the 50th percentile. Half the values had higher damage scores; half had lower damage scores. The value of the 75th and 90th percentile is the damage score where 75% and 90% of the soybean events had lower damage scores, respectively. The difference between the 75th and 25th percentile is called the interquartile range and a marker to quantify scattering in the population. All constructs had only one single cassette insertion in the soybean genome.

[4] = T0 soybean events expressing the polypeptide, scale 0 to 100

Molecule | bleaching of shoots [1] | turnover and residual turnover, comparison in words ([2]; 100 μM Cmpd. 1, Table 3) | Residual turnover [%] ([2]; 100 μM Cmpd. 1, normalised to turnover without inhibitor) | Turnover ([2]; absence of Cmpd. 1, changes in absorbance (OD) at 320 nm in the coupled assay, 30 min) | Residual turnover ([2]; presence of 100 μM Cmpd. 1, changes in absorbance (OD) at 320 nm in the coupled assay, 30 min) | leaf area damage score, 25th percentile ([3]; T0 soybean events expressing the polypeptide, scale 0 (no damage) to 100 (complete bleaching)) | leaf area damage score, 75th percentile [3, 4] | leaf area damage score, 90th percentile [3, 4] | leaf area damage score, Median ([3]; T0 soybean events expressing the polypeptide, scale 0 to 100, 50th percentile) | leaf area damage score, Interquartile range ([3]; difference between 75th and 25th percentile, T0 soybean events)
CS(=O)(=O)c1ccc(C(=O)C2C(=O)CCCC2=O)c(Cl)c1COCC(F)(F)F [tembotrione, 2-[2-chloro-4-(methylsulfonyl)-3-[(2,2,2,-trifluoroethoxy)methyl]benzoyl]-1,3-cyclohexanedione] | entirely bleached | – | – | – | – | – | – | – | – | –
B1 | – | increase significantly the turnover and the residual turnover | 79 | 0.209 | 0.166 | 10.0 | 25.0 | 35.0 | 15.0 | 15.0
